The values below come from the RNAGym collection of RNA variant scans (doi:10.1093/molbev/msab373).

First the molecules themselves.
B1: Azoarcus group I ribozyme (parent)
chain: GUGCCUUGCGCCGGGAAACCACGCAAGGGAUGGUGUCAAAUUCGGCGAAACCUAAGCGCCCGCCCGGGCGUAUGGCAACGCCGAGCCAAGCUUCGGCGCCUGCGCCGAUGAAGGUGUAGAGACUAGACGGCACCCACCUAAGGCAAACGCUAUGGUGAAGGCAUAGUCCAGGGAGUGGCGAAAGUCACACAAACCGG

In this series the parent is B1. As to the kind of experiment: reverse-splicing fitness (ratio to wild type); higher = more active; in vitro selection; Mg2+ level not given. The method, boiled down:
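An in vitro group I ribozyme library with randomized positions was T7-transcribed and gel-purified. In triplicate, 10 pmol RNA in EPPS pH 7.5 was reacted with 50 pmoles of a 30-nt RNA substrate for 1 h at 37 °C across several added MgCl2 levels (1–48 mM), then stopped with EDTA. Products were reverse transcribed from a substrate-complementary primer, PCR-amplified and sequenced (HiSeq 4000). Fitness is a variant's read proportion after selection over that before, normalised to wild type.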
Regarding C82A A111C A120U A145C C169G U176G, the reverse-splicing fitness was found to be 0.00255.

For the variant C82A A111C A120U A145C C169G U176C, the reverse-splicing fitness was 0.00316.

For the variant C82A A111C A120G C150U C169A U176C, the reverse-splicing fitness came out at 0.0139.

As to C82A A111C A120G C150U C169A U176G, the reverse-splicing fitness turned out to be 0.00621.

Take C82A A111C A120G C150U C169A U176A: the reverse-splicing fitness was 0.013.

Turning to C82A A111C A120U A145U C150A C169A U176G, the reverse-splicing fitness came to 0.00272.

Consider C82A A111C A120U A145U C150A C169A U176C, for which the reverse-splicing fitness came to 0.00334.

Turning to C82A A111C A120U A145U C150A C169A U176A, the reverse-splicing fitness is 0.00258.

For the variant C82A A111C A120U A145C C150A C169A, the reverse-splicing fitness was found to be 0.00282.

Take C82A A111C A120U A145C C150A C169U: the reverse-splicing fitness came to 0.00355.

For C82A A111C A120U A145C C150A C169G, the reverse-splicing fitness was 0.00308.

As to C82A A111C A120G A145U C150A C169G U176A, the reverse-splicing fitness was 0.0138.

As to C82A A111C A120G A145U C150A C169G U176C, the reverse-splicing fitness was determined as 0.0156.

On to C82A A111C A120G A145U C150A C169G U176G, for which the reverse-splicing fitness worked out at 0.00576.

Regarding C82A A111C A120U A145G C150G C169G U176C, the reverse-splicing fitness is 0.00768.

Turning to C82A A111C A120U A145G C150G C169G U176A, the reverse-splicing fitness was 0.0101.

With C82A A111C A120U A145G C150G C169G U176G, the reverse-splicing fitness is 0.00456.

With C82A A111C A120U A145G C150U C169U, the reverse-splicing fitness stood at 0.00603.

On to C82A A111C A120U A145G C150U C169A, for which the reverse-splicing fitness came out at 0.00691.

Consider C82A A111C A120U A145G C150U C169G, for which the reverse-splicing fitness turned out to be 0.0065.

For C82A A111C A120G C150G C169U U176A, the reverse-splicing fitness was determined as 0.00801.

With C82A A111C A120G C150G C169U U176G, the reverse-splicing fitness stood at 0.00579.

On to C82A A111C A120G C150G C169U U176C, for which the reverse-splicing fitness amounted to 0.012.

Consider C82A A111C A120U A145G C150A C169U, for which the reverse-splicing fitness was determined as 0.00559.

Consider C82A A111C A120U A145G C150A C169A, for which the reverse-splicing fitness came out at 0.00708.

C82A A111C A120U A145G C150A C169G: the reverse-splicing fitness worked out at 0.00577.

Turning to C82A A111C A120U A145C C150G U176C, the reverse-splicing fitness stood at 0.00415.

As for C82A A111C A120U A145C C150G U176A, the reverse-splicing fitness turned out to be 0.00333.

For the variant C82A A111C A120U A145C C150G U176G, the reverse-splicing fitness was 0.00265.

For C82A A111C A120G A145G U176C, the reverse-splicing fitness was found to be 0.0226.

Regarding C82A A111C A120G A145G U176G, the reverse-splicing fitness amounted to 0.00581.

As to C82A A111C A120G A145G U176A, the reverse-splicing fitness worked out at 0.0153.

As to C82A A111C A120G C150A C169A, the reverse-splicing fitness amounted to 0.00919.

Take C82A A111C A120G C150A C169U: the reverse-splicing fitness turned out to be 0.00723.

C82A A111C A120G C150A C169G: the reverse-splicing fitness came out at 0.00885.

Take C82A A111C A120U A145G C150U C169U U176C: the reverse-splicing fitness worked out at 0.00469.

As to C82A A111C A120U A145G C150U C169U U176G, the reverse-splicing fitness was 0.00315.

Take C82A A111C A120U A145G C150U C169U U176A: the reverse-splicing fitness amounted to 0.00523.

C82A A111C A120U: the reverse-splicing fitness was found to be 0.0221.

On to C82A A111C A120U A145C C150U C169U U176A, for which the reverse-splicing fitness worked out at 0.00329.

On to C82A A111C A120U A145C C150U C169U U176G, for which the reverse-splicing fitness came out at 0.00284.

As to C82A A111C A120U A145C C150U C169U U176C, the reverse-splicing fitness came to 0.00286.

With C82A A111C A120G C169G, the reverse-splicing fitness came to 0.00872.

Consider C82A A111C A120G C169A, for which the reverse-splicing fitness amounted to 0.0095.

Consider C82A A111C A120G C169U, for which the reverse-splicing fitness amounted to 0.00841.

For C82A A111C A120G A145G C169U, the reverse-splicing fitness stood at 0.00908.

Take C82A A111C A120G A145G C169A: the reverse-splicing fitness is 0.0107.

With C82A A111C A120G A145G C169G, the reverse-splicing fitness is 0.00963.

On to C82A A111C A120U A145G C150U U176G, for which the reverse-splicing fitness came to 0.00369.

As for C82A A111C A120U A145G C150U U176C, the reverse-splicing fitness was determined as 0.0108.

With C82A A111C A120U A145G C150U U176A, the reverse-splicing fitness is 0.00986.

As to C82A A111C A120U A145G C169G U176A, the reverse-splicing fitness amounted to 0.00381.

For C82A A111C A120U A145G C169G U176C, the reverse-splicing fitness amounted to 0.00437.

In the case of C82A A111C A120U A145G C169G U176G, the reverse-splicing fitness was determined as 0.00244.

For the variant C82A A111C A120U A145C C150U U176C, the reverse-splicing fitness was determined as 0.00525.

For the variant C82A A111C A120U A145C C150U U176G, the reverse-splicing fitness was 0.0028.

On to C82A A111C A120U A145C C150U U176A, for which the reverse-splicing fitness came to 0.00424.

As to C82A A111C A120U A145G C150A C169U U176A, the reverse-splicing fitness amounted to 0.00642.

On to C82A A111C A120U A145G C150A C169U U176C, for which the reverse-splicing fitness came to 0.00488.

As to C82A A111C A120U A145G C150A C169U U176G, the reverse-splicing fitness stood at 0.00328.

Take C82A A111C A120G A145U C150U C169G U176C: the reverse-splicing fitness turned out to be 0.014.

In the case of C82A A111C A120G A145U C150U C169G U176A, the reverse-splicing fitness was 0.012.

For the variant C82A A111C A120G A145U C150U C169G U176G, the reverse-splicing fitness was determined as 0.00522.

Take C82A A111C A120U A145U C150G U176G: the reverse-splicing fitness was 0.00259.

In the case of C82A A111C A120U A145U C150G U176C, the reverse-splicing fitness turned out to be 0.00511.

With C82A A111C A120U A145U C150G U176A, the reverse-splicing fitness was 0.00392.

Consider C82A A111C A120U A145C U176G, for which the reverse-splicing fitness is 0.00266.

For C82A A111C A120U A145C U176A, the reverse-splicing fitness was 0.00599.

In the case of C82A A111C A120U A145C U176C, the reverse-splicing fitness was 0.00818.

For the variant C82A A111C A120U A145U C150U C169G U176G, the reverse-splicing fitness was 0.00247.

Turning to C82A A111C A120U A145U C150U C169G U176C, the reverse-splicing fitness is 0.00338.

For C82A A111C A120U A145U C150U C169G U176A, the reverse-splicing fitness worked out at 0.00315.

On to C82A A111C A120U A145C C150U C169U, for which the reverse-splicing fitness is 0.00379.

With C82A A111C A120U A145C C150U C169A, the reverse-splicing fitness came to 0.00362.

As for C82A A111C A120U A145C C150U C169G, the reverse-splicing fitness worked out at 0.00378.

On to C82A A111C A120G A145U C150A U176G, for which the reverse-splicing fitness came to 0.00589.

Take C82A A111C A120G A145U C150A U176C: the reverse-splicing fitness amounted to 0.02.

Consider C82A A111C A120G A145U C150A U176A, for which the reverse-splicing fitness was found to be 0.0139.

For the variant C82A A111C A120U A145C C150A C169A U176G, the reverse-splicing fitness was found to be 0.00275.

As for C82A A111C A120U A145C C150A C169A U176C, the reverse-splicing fitness stood at 0.00256.

Turning to C82A A111C A120U A145C C150A C169A U176A, the reverse-splicing fitness stood at 0.00291.

Regarding C82A A111C A120G C169U U176G, the reverse-splicing fitness was found to be 0.00559.

Consider C82A A111C A120G C169U U176C, for which the reverse-splicing fitness came out at 0.0145.

Regarding C82A A111C A120G C169U U176A, the reverse-splicing fitness amounted to 0.0144.
